Assay results published in US5792641.

Tests used:
[1] = biological target: Humicola insolens 43 kD endoglucanase (Humicola insolens)
[2] = biological target: Variant I: V221S+N222S+Q223T (Humicola insolens)
[3] = biological target: Variant II: V240P+Q241P (Humicola insolens)

Substance: Savinase® protease (from UniProt P29600) (enzyme)
- Residual Activity, % DAA (25° C., 5d) after storage in liquid detergent with Savinase protease [1]: 63%
- Residual Activity, % DAA (25° C., 5d) after storage in liquid detergent with Savinase protease [2]: 83%
- Residual Activity, % DAA (25° C., 5d) after storage in liquid detergent with Savinase protease [3]: 81%
